Measured values reported in IntAct's records for PubMed 19625296.

How the values were obtained:
[1] = molecular target: DVL1, O14640-2
[2] = molecular target: dvl2_human DVL2 (UniProt O14641)
[3] = molecular target: dvl3_human DVL3 (UniProt Q92997)
Chain of UniProt Q92997 (Q92997 whole entry): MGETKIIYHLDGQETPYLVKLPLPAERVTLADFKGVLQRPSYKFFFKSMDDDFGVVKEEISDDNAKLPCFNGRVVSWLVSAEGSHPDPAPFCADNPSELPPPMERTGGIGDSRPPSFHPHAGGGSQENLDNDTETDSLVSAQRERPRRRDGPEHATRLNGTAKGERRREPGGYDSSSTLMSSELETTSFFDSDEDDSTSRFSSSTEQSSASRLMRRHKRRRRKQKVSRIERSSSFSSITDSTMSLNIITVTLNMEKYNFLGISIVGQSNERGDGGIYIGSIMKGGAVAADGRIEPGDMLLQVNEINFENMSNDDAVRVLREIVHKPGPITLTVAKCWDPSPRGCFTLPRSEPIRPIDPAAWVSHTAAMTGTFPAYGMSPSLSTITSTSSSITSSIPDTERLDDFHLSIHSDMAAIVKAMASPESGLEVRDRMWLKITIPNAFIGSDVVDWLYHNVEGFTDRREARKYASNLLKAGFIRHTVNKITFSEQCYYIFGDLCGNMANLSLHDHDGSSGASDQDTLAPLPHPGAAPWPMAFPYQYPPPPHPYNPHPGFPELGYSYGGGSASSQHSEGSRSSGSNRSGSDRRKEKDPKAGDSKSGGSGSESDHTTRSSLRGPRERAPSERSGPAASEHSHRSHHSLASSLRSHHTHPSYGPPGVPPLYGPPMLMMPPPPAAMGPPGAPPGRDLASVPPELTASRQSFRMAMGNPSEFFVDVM

Chain of DVL1, O14640-2 (O14640 other isoform, or with tags, fused parts or gaps): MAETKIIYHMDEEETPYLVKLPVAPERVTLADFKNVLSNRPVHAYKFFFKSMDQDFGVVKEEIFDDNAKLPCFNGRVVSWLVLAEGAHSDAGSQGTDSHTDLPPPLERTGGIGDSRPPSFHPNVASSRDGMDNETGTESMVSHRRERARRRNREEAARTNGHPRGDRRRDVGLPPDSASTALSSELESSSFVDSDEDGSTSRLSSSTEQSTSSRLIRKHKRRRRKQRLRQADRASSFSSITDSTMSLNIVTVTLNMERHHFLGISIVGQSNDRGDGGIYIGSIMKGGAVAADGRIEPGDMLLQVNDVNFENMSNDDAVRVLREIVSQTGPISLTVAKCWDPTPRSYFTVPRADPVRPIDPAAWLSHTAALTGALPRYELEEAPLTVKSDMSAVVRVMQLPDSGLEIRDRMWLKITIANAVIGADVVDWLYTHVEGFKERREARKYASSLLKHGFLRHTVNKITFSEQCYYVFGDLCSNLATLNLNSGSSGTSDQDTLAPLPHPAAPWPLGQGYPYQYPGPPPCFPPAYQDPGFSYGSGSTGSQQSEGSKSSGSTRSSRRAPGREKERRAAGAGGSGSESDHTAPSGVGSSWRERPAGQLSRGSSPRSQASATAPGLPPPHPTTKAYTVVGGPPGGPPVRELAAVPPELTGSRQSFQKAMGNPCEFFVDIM
Chain of UniProt O14641 (O14641 whole entry): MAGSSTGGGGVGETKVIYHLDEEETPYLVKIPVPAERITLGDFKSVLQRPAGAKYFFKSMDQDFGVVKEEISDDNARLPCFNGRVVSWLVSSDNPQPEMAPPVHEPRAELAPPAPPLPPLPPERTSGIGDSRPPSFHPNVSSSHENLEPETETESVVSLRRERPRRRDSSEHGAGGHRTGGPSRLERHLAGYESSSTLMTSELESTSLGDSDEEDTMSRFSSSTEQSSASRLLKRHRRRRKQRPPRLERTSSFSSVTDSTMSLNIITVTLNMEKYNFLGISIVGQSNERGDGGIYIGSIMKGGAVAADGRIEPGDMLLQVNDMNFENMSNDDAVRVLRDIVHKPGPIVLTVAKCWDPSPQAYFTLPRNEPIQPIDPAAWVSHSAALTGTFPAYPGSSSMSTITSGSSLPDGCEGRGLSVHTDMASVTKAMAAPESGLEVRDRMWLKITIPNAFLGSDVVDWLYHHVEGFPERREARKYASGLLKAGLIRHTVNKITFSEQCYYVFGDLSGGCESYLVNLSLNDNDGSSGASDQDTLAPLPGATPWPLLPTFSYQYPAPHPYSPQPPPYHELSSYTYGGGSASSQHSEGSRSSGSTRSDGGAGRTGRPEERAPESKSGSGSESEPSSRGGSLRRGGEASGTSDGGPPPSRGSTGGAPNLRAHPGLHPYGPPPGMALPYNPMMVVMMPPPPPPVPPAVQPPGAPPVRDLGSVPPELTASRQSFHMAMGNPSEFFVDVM

| Substance | effect of a mutation on the interaction [1] | effect of a mutation on the interaction [2] | effect of a mutation on the interaction [3] |
| --- | --- | --- | --- |
| Leucine-rich repeat serine/threonine-protein kinase 2 (Homo sapiens), Q5S007 R1441C | increasing interaction |  |  |
| Leucine-rich repeat serine/threonine-protein kinase 2 (Homo sapiens), Q5S007 R1441G | increasing interaction |  |  |
| Leucine-rich repeat serine/threonine-protein kinase 2 (Homo sapiens), Q5S007 R1441H | increasing interaction |  |  |
| Leucine-rich repeat serine/threonine-protein kinase 2 (Homo sapiens), Q5S007 R1514Q |  | decreasing interaction |  |
| Leucine-rich repeat serine/threonine-protein kinase 2 (Homo sapiens), Q5S007 R1728H | increasing interaction |  |  |
| Leucine-rich repeat serine/threonine-protein kinase 2 (Homo sapiens), Q5S007 R1728L | increasing interaction |  |  |
| Leucine-rich repeat serine/threonine-protein kinase 2 (Homo sapiens), Q5S007 Y1699C | decreasing interaction | decreasing interaction | decreasing interaction |
